Drawing on paper PMC4824412, this text covers stoichiometry N (GARP per TGFβ) and proliferation of Mv1Lu cells with a constant 60 ng/ml latent TGFβ pre-incubated with 10-40 ng/ml GARPTS; value for two substances.

Experiment [1] deals with GARPTS, soluble tail switch mutant of human GARP (glycoprotein A repetitions predominant) (human) (UniProt Q14392). Nature of the experiment: non-reducing SDS-PAGE and western blot of disulfide-linked complexes; GARPTS (300 ng) and a mixture of pro-TGFβ and latent TGFβ (600 ng) incubated overnight at RT in redox buffer (oxidized glutathione and 2 mM free cysteine), no pull-down; 10% gel, non-reducing; anti-Strep-tag or anti-His-tag antibodies.

For experiment [2] the target is unchanged.

“And” between values parts separate entries of the source, which are not always exact repeats. Equal entries are not always repeated. Some results are limits rather than exact numbers.

With “recombinant latent TGFβ (furin-cleaved pro-TGFβ; LAP non-covalently bound to the mature cytokine) (complex)”, the stoichiometry N (GARP per TGFβ) in experiment [1] is 2 and 1. Besides, the proliferation of Mv1Lu cells with a constant 60 ng/ml latent TGFβ pre-incubated with 10-40 ng/ml GARPTS; value at approximately 40 ng/ml (0.5 nM) GARPTS in experiment [2] is under 60%.
As to “recombinant pro-TGFβ (not cleaved by furin) (natural protein)”, the stoichiometry N (GARP per TGFβ) in experiment [1] was 2 and 1.
